Three molecules from article PMC9116609 (Science Advances, 2022) can be followed below.

B2: dehydrodolichyl diphosphate synthase (DHDDS), residues 1 to 333 (enzyme)
chain: MSWIKEGELSLWERFCANIIKAGPMPKHIAFIMDGNRRYAKKCQVERQEGHSQGFNKLAETLRWCLNLGILEVTVYAFSIENFKRSKSEVDGLMDLARQKFSRLMEEKEKLQKHGVCIRVLGDLHLLPLDLQELIAQAVQATKNYNKCFLNVCFAYTSRHEISNAVREMAWGVEQGLLDPSDISESLLDKCLYTNRSPHPDILIRTSGEVRLSDFLLWQTSHSCLVFQPVLWPEYTFWNLFEAILQFQMNHSVLQKARDMYAEERKRQQLERDQATVTEQLLREGLQASGDAQLRRTRLHKLSARREERVQGFLQALELKRADWLARLGTASA

For data set [1], the target named is T1, shcis-PT (soluble human cis-prenyltransferase complex, DHDDS-NgBR) (Homo sapiens, UniProt Q86SQ9).
T1 sequence (Q86SQ9 1-333): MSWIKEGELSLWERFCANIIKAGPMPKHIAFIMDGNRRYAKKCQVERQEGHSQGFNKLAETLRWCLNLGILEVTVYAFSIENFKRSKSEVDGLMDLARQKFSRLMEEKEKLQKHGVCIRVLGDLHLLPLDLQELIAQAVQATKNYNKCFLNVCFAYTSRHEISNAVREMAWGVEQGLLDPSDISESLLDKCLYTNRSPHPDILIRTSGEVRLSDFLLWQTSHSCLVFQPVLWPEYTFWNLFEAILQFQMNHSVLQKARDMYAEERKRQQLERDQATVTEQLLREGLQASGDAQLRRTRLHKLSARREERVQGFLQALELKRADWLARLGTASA
T1 sequence (Q96E22 73-293 partner): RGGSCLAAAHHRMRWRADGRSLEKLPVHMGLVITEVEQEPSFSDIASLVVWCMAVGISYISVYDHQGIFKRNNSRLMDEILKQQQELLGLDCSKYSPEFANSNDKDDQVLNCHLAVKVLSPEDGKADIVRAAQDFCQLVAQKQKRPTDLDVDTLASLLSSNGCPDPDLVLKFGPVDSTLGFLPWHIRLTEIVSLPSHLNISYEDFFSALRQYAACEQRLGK
In words: displacement of MANT-O-GPP followed by FRET. The data set is classed as binding. The conditions noted are these: competition with 10 μM MANT-O-GPP; pH 7.5, 0.5 mM MgCl2, 1 μM enzyme; S1 site.

The target of data set [2] is B2. In words: crystal structure.
The data set “crystal structure” deals with the molecule itself. In words: crystal structure.

Molecule `CC(C)=CCC/C(C)=C/CC/C(C)=C/CO[P@@](=O)(O)OP(=O)(O)O` [FPP] gave an IC50 in data set [1] of 10.5 ± 3 µM.

B1: Nogo B-receptor (NgBR), pseudo cis-prenyltransferase domain, residues 73 to 293 lacking residues 167 to 175 (domain or fragment)
chain: RGGSCLAAAHHRMRWRADGRSLEKLPVHMGLVITEVEQEPSFSDIASLVVWCMAVGISYISVYDHQGIFKRNNSRLMDEILKQQQELLGLDCSKDKDDQVLNCHLAVKVLSPEDGKADIVRAAQDFCQLVAQKQKRPTDLDVDTLASLLSSNGCPDPDLVLKFGPVDSTLGFLPWHIRLTEIVSLPSHLNISYEDFFSALRQYAACEQRLGK
Regarding B1, the binding result in data set [2] was “binds”.
Turning to B2, the binding result in the data set “crystal structure” is on record as “binds”.

By IC50 is commonly meant the midpoint of a concentration-inhibition curve. Higher therefore signals weaker potency in that assay.
